These results are taken from paper PMC8215292, “Functional impact of intramolecular cleavage and dissociation of adhesion G protein–coupled receptor GPR133 (ADGRD1) on canonical signaling” (The Journal of Biological Chemistry, 2021).

Assay [1] deals with T1, GPR133 (ADGRD1) C-terminal fragment with C-terminal Twin-Strep-tag, cleaved from C-terminally … (human).
T1 construct: also called CTF; GPR133 CTF; source: HEK293T, transfected, in whole-cell lysate or subcellular fractions; not shown: Twin-Strep, C-terminal, kept
T1 chain: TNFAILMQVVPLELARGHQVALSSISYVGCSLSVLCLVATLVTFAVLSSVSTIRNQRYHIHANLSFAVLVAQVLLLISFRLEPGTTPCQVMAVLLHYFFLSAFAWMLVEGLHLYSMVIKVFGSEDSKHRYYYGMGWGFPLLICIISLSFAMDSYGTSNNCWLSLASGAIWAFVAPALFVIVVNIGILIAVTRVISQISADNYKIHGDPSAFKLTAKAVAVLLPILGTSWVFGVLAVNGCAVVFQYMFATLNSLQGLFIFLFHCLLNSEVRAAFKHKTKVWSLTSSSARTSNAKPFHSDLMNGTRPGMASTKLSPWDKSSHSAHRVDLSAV
The assay is described as follows: pull-down; C-terminal Twin-Strep tag purification on Strep-Tactin from the plasma membrane subcellular fraction of HEK293T cells (1% DDM); Western blot, densitometry of NTF/CTF. As to conditions: partners not purified.

Assay [2] deals with T1, GPR133 (ADGRD1) C-terminal fragment …. The assay is described as follows: pull-down; C-terminal Twin-Strep tag purification on Strep-Tactin from the Nuc/ER/Golgi subcellular fraction of HEK293T cells (1% DDM); Western blot, densitometry of NTF/CTF. As to conditions: partners not purified.

B1: GPR133 (ADGRD1) N-terminal fragment, cleaved from C-terminally Twin-Strep-tagged WT GPR133 (domain or fragment, human)
chain: VYSRSQDHPGFQVLASASHYWPLENVDGIHELQDTTGDIVEGKVNKGIYLKEEKGVTLLYYGRYNSSCISKPEQCGPEGVTFSFFWKTQGEQSRPIPSAYGGQVISNGFKVCSSGGRGSVELYTRDNSMTWEASFSPPGPYWTHVLFTWKSKEGLKVYVNGTLSTSDPSGKVSRDYGESNVNLVIGSEQDQAKCYENGAFDEFIIWERALTPDEIAMYFTAAIGKHALLSSTLPSLFMTSTASPVMPTDAYHPIITNLTEERKTFQSPGVILSYLQNVSLSLPSKSLSEQTALNLTKTFLKAVGEILLLPGWIALSEDSAVVLSLIDTIDTVMGHVSSNLHGSTPQVTVEGSSAMAEFSVAKILPKTVNSSHYRFPAHGQSFIQIPHEAFHRHAWSTVVGLLYHSMHYYLNNIWPAHTKIAEAMHHQDCLLFATSHLISLEVSPPPTLSQNLSGSPLITVHLKHRLTRKQHSEATNSSNRVFVYCAFLDFSSGEGVWSNHGCALTRGNLTYSVCRCTHL
modifications: glycosylated (immaturely and maturely glycosylated forms; nine N-linked glycosylation sites predicted within the NTF)
notes: signal peptide in the construct; codon-optimized cDNA of WT human GPR133 from Axxam; also called NTF; GPR133 NTF; source: HEK293T, transfected, in whole-cell lysate or subcellular fractions
Consider B1, for which the “NTF/CTF ratio in the elution” value stood at 0.17 in assay [1] and 1 in assay [2].
